The nature of the data set: soluble on expression in E. coli; label from the status in PepcDB or PDB records.
“DVPLTPSQFAKAKSENFDKKVILSNLNKPHALLWGPDNQIWLTERATGKILRVNPESGSVKTVFQVPEIVNDADGQNGLLGFAFHPDFKNNPYIYISGTFKNPKSTDKELPNQTIIRRYTYNKSTDTLEKPVDLLAGLPSSKDHQSGRLVIGPDQKIYYTIGDQGRNQLAYLFLPNQAQHTPTQQELNGKDYHTYMGKVLRLNLDGSIPKDNPSFNGVVSHIYTLGHRNPQGLAFTPNGKLLQSEQGPNSDDEINLIVKGGNYGWPNVAGYKDDSGYAYANYSAAANKSIKDLAQNGVKVAAGVPVTKESEWTGKNFVPPLKTLYTVQDTYNYNDPTCGEMTYICWPTVAPSSAYVYKGGKKAITGWENTLLVPSLKRGVIFRIKLDPTYSTTYDDAVPMFKSNNRYRDVIASPDGNVLYVLTDTAGNVQKDDGSVTNTLENPGSLIKFTYKAK”: the “soluble on expression in E. coli” value is on record as “soluble”.

As to “DVQLLESGPGLVAPSQSLSITCTVSGFSLTNYGVDWVRQPPGKGLEWVGVIWSGGSTNYNSALMSRLSISKDNSKSQVFLKMNSLQTDDTAVYYCAKHWGGYYIPYGMDHWGQGTTVTVSSASTKGPSVFPLAPSSKSTSGGTAALGCLVKDYFPEPVTVSWNSGALTSGVHTFPAVLQSSGLYSLSSVVTVPSSSLGTQTYICNVNHKPSNTKVDKKVEPKSCDKTHT”, the “soluble on expression in E. coli” value is on record as “soluble”.

Regarding “DYKDDDDKVKLTCYQNGVSFTGGKAISEAKAASSQACQELCEKDAKCRFFTLASGKCSLFADDAALRPTKSDGAVSGNKRCILLED”, the “soluble on expression in E. coli” value is reported as “soluble”.

Regarding “DYKYVLKGHEDIRQDSLVMQLFGLVNTLLKNDSECFKRHLDIQQYPAIPLSPKSGLLGWVPNSDTFHVLIREHRDAKKIPLNIEHWVMLQMAPDYENLTLLQKIEVFTYALDNTKGQDLYKILWLKSRSSETWLERRTTYTRSLAVMSMTGYILGLGDRHPSNLMLDRITGKVIHIDFGDCFEAAILREKYPEKVPFRLTRMLTYAMEVSGIEGSFRITCENVMRVLRDNKESLMAILEAFALDPLIHWGFD”, the “soluble on expression in E. coli” value was “not soluble”.

For the sequence “EAAFWGASNELLHDPTMIKEGSSWYALGTGLTEERGLRVLKSSDAKNWTVQKSIFTTPLSWWSNYVPNYGQNQWAPDIQYYNGKYWLYYSVSSFGSNTSAIGLASSTSISSGGWKDEGLVIRSTSSNNYNAIDPELTFDKDGNPWLAFGSFWSGIKLTKLDKSTMKPTGSLYSIAARPNNGGALEAPTLTYQNGYYYLMVSFDKCCDGVNSTYKIAYGRSKSITGPYLDKSGKSMLEGGGTILDSGNDQWKGPGGQDIVNGNILVRHAYDANDNGIPKLLINDLNWSSGWPSY”, the “soluble on expression in E. coli” value is “soluble”.

Regarding “EAIGASVIPMSAGNTEKQIMIMQDYKTTALVCTPSYAITIADRMEKMGVDPKSLSLKVGLFGAEPWSEAMRKEIENRLFVSATDNYGLSEIIGPGVAGDCEYKCGMHIS”, the “soluble on expression in E. coli” value is on record as “not soluble”.

In the case of “EDPLAKKQTVRLIKDLQRAINKVLCTRLRLSNFFTIDHFIQKLHTARKILVLTGAGVSTSLGIPDFRSSEGFYSKIKHLGLDDPQDVFNYNIFMHDPSVFYNIANMVLPPEKIYSPLHSFIKMLQMKGKLLRNYTQNIDNLESYAGISTDKLVQCHGSFATATCVTCHWNLPGERIFNKIRNLELPLCPYCYKKRREYFPEGYNNKVGVAASQGSMSERPPYILNSYGVLKPDITFFGEALPNKFHKSIREDILECDLLICIGTSLKVAPVSEIVNMVPSHVPQVLINRDPVKHAEFDLSLLGYCDDIAAMVAQKCGWTIPHKKWNDLKNKNFKCQEKDKGVYVVTSDEHPKTL”, the “soluble on expression in E. coli” value is recorded as “soluble”.

For “EGCYVATLEKCATCSQPILDRILRAMGKAYHPGCFTCVVCHRGLDGIPFTVDATSQIHCIEDFHRKFA”, the “soluble on expression in E. coli” value is “soluble”.

With “EGFKKLELNYMKERSYEEAKEYLDRALKNSVLKRVRGLDKVGIICSGGVDSSLIAKLASLYCEVILYAVGTENSEDLIYAERLAKDLNLKLRKKIISEEEYEEYVFKVAKAIDEVDLMKIGVGIPIYVASEMANEDGLKVVLSGQGADELFGGYARHERIYRERGEEELKKELLKDVYNLYKVNLERDDHCTMANGVELRVPFLDEEVVEIALSIPIEYKMSELSNRPYAESNISLKSEPINGLKNTNLNIKCVRSVRKKILRDVASQYLPDYIAYRPKKAAQYGSG”, the “soluble on expression in E. coli” value was “soluble”.

On to “EHLLEELESELVRRVYSTHFPPQVSIDEGQAQLACAEFHAVTPEEGQDLLVLSGDHQAQNNQGHYGLTDTFLDIADEFGIQRVFALGGVPTGELIEEYDVLGATTTEDFKETLEESGVAFREDEPAGGIVGVSGLLLGLSKRRDVPASCLMGETSGYLVDPKSAQAVLEILQDVIGFEVDYSSLEDRADEMEEVVRKIQEMEQQNSPSPADEDLRYIG”, for which the “soluble on expression in E. coli” value was “not soluble”.

For “EIEMTQSPSSLSASVGDRVTISCRASQRINTYLNWYQHKPGKAPKLLIYAASSLQSGVPSRFSGSGYGTDFTLTISSLQPEDFASYYCQESLSASYTFGQGTKVEIKRTVAAPSVFIFPPSDEQLKSGTASVVCLLNNFYPREAKVQWKVDNALQSGNSQESVTEQDSKDSTYSLSSTLTLSKADYEKHKVYACEVTHQGLSSPVTKSFNRGEC”, the “soluble on expression in E. coli” value is “soluble”.

For the sequence “EITPLFFQKELATPVDNLKPYTALQMEGRDIYIREGCSNCHSQMIRPFRAETERYGHYSVAGESVWEHPFLWGSKRTGPDLARVGGRYSDDWHIAHLTDPRSVVPESNMPAYSWLNTDTLDGELTGKKLATFNFLTRNRSHKDENGNAIPLYTQAEIDGAKDAVKGKTEMSALIAYLQSLGH”, the “soluble on expression in E. coli” value was “not soluble”.

In the case of “EKEKDTIAAEHKQEASVLLNLHRNKINYLIGETMARMTSLSIAIDRPVDIKKMQSILEKTFDSEPRFSGLYFLNAKGDVTASTTELKTKVNLADRSFFIKAKETKKTVISDSYSSRITGQPIFTICVPVLDSKRNVTDYLVAAIQIDYLKNLINLLSPDVYIEVVNQDGKMIFASGQASHAEDQKPVSGYLDDISWNMKVYPNPVTIEELSKSL”, the “soluble on expression in E. coli” value is recorded as “soluble”.

“ELEPGAFSELYQRYRHCDAPICLYEQGRDSFEDEGRWRLILCATCGSHGTHRDCSSLRPNSKKWECNECLPA”: the “soluble on expression in E. coli” value is on record as “soluble”.

Consider “ELNHRVKNTLATVQAIASLTVNSSTSLDSFRKSFDARLFALSQARAEWMSTELADLLAQLQDVNGGQHRITFTGDP”, for which the “soluble on expression in E. coli” value is on record as “not soluble”.

Regarding ELYSALANKCCHVGCTKRSLARFC, the “soluble on expression in E. coli” value is given as “soluble”.

Turning to EQHADPICNKPCKTHDDCSGAWFCQACWNSARTCGPYVG, the “soluble on expression in E. coli” value was “soluble”.

For “EQLAGIDNLRDLDPTGALATKLEAIAPTVSTYDSYAGRLISEYGLLLPVEPSSRLISQTELFQIAHSIVSAHTGALNTSNSPNTVTSTLISLVSEMDNHMVSPTDIEEESAAFLAMIEDVEATSKRAPSKEVYKWRDTQVLRNELLPLVQQLKTHLADNHLMTFGEQMSLAARLAAENPQVGASQRNRYQIIMLDEYQDTGHAQRVLLKSLFAGTAVTAVGDPMQSIYGWRGATAANLERFLTDFGSNGSPATKKELTVSFRNPPEVLDLANRVSRELLGVPEDPRRPVQPLEPGPAALNGIVRLGFFPSMDEERSYVADHLAQAYEQHDGDHPFTAAVLVRKRKHSAAIALELQQRGVPVE”, the “soluble on expression in E. coli” value is listed as “not soluble”.

On to “ETELAFLYERDIYRLLAECDNSRNPDLGLIVRICLATGARWSEAETLTQSQVMPYKITFTNTKSKKNRTVPISDELFDMLPKKRGRLFNDAYESFENAVLRAEIELPKGQLTHVLRHTFASHFMMNGGNILVLKEILGHSTIEMTMRYAHFAPSHLESAVKFNPLSNPAQ”, for which the “soluble on expression in E. coli” value is recorded as “soluble”.

Consider “EVASYCDRVVAAVSSWMSTVKSTTEVSWNKLSFCDVLLKIITFGIYSPHETLAEKYSEKKLMDSFSPSLSQDKMDGEFAHANIDGISIRLCLNKGICSVFYLDGDKIQSTQLSSKEYNNLLSSLPPKQFNLGKVHTITAPVSGNFKTHKPAPEVIETAINCCTSIIPNDDYFPVKDTDFNSVWHDIYRDIRASDSNSTKIYFNNIEIPLKLIADLINELGINEFIDSKKELQMLSYNQLNKIINSNFPQQDLCFQTEKLLFTSLFQDPAFISALTSAFWQSLHITSSSVEHIYAQIMSENIENRLNFMPEQRVINNCGHIIKINAVVPKNDTAISASGGRAYEVSSSILPSHITCNGVGINKIETSYLVHAGTLPSSEGLRNAIPPESRQVSFAIISPDV”, for which the “soluble on expression in E. coli” value is “soluble”.

As to “EVIAAYIEGIKKAAENGLNVSQIHSVASFFVSRLDTEVDKRLEQIGSDEALSLRGKAGVANAQRAYAVFLEAFQAADLPVGAHVQRPLWASTGVKNPDYSPTFYVSELAGPDTVNTMPESTIDAVLAADDIHGDTLSSSSDSANEIFTRISQTGIDFEDVFAVLEQEGVDKFVAAWSDLLDSMESRLK”, the “soluble on expression in E. coli” value is reported as “not soluble”.

As to “EVQLLESGGGLVQPGGSLRLSCAASGFTFSRYVMWWVRQAPGKGLEWVSYIWPSGGNTYYADSVKGRFTISRDNSKNTLYLQMNSLRAEDTAVYYCASSYDFWSNAFDIWGQGTMVTVSSASTKGPSVFPLAPCSRSTSESTAALGCLVKDYFPEPVTVSWNSGALTSGVHTFPAVLQSSGLYSLSSVVTVPSSSLGTKTYTCNVDHKPSNTKVDKRVES”, the “soluble on expression in E. coli” value is “soluble”.

Regarding “EVVVTGMQKMDKRLFTGATQQLTADNVKLDGLPDISRGLEGRAAGVSVQNVSGTFGTAPKIRVRGATSIYGSSKPLWVVDGVIMEDAIDVGPDDLSSGDAETLISSAIAGLNSDDIESFQILKDGSATSIYGARAMAGVIVVTTKKGK”, the “soluble on expression in E. coli” value is given as “not soluble”.

As to “EVVVVGYGTMKRSDLTGSVASIAAKDVEGFKTSSVAGALGGQIAGVQITSTDGTPGAGFSINIRGVGTLTGDSSPLYIVDGFEVDDIDYLSNSDIESIEVLKDASSSAIYGARAANGVVLITTKSGK”, the “soluble on expression in E. coli” value is given as “not soluble”.

For the sequence “FDNLTDRLSRTLRNISGRGRLTEDNVKDTLREVRMALLEADVALPVVREFINRVKEKAVGHEVNKSLTPGQEFVKIVRNELVAAMGEENQTLNLAAQPPAVVLMAGLQGAGKTTSVGKLGKFLREKHKKKVLVVSADVYRPAAIKQLETLAEQVGVDFFPSDVGQKPVDIVNAALKEAKLKFYDVLLVDTAGRLHVDEAMMDEIKQVHASINPVETLFVVDAMTGQDAANTAKAFNEALPLTGVVLTKVDGDARGGAALSIRHITGKPIKFLGVGEKTEALEPFHPDRIASRILGMGDVLSLIEDIESKVDRAQAEKLASKLKKGDGFDLNDFLEQLRQMKNMGGMASLMGKLPGMGQIPDNVKSQMDDKVLVRMEAIINSMTMKERAKPEIIKGSRKRRIAAGCGMQVQDVNRLLKQFDDMQRMMKKMK”, the “soluble on expression in E. coli” value is given as “soluble”.

For the sequence “FFAAITAAERRCWIASPYFVPDLDILAALKHAALRGVDVRLLVPDEADHTIPWLAAFAYFDEVREAGVRVMRYTDGFLHQKVFVVDDTIAAVGTTNLDNRSFRLNFEAMALFFDATVAGQVTAMLEHDFASSTELTRSLAAQPVFIRYGAPLARLFAPIL”, the “soluble on expression in E. coli” value is recorded as “not soluble”.

With “FGDFNYNTTFTATTNKNKIIQLARDVLNPVTNTLIDLTDIQVGRFRLREGGEIGTVYANEWLKRDGDNYIDYQPGQALTTETTSPYKLGSVNPKWNLGWQHGFSYKGFNLNLLFTARIGGIAISKTQAMLDRYGVSEASADARDAGGVSLGYFKVDPKTYYDAVSNLDAYYTYSATNVRLQEARLTYTFPNKWFKGTVNNLSLSVYGTNLWMIYNKAPYDPELTASTGTFGQGYDYFMLPSQSTYGLSLKFGF”, the “soluble on expression in E. coli” value is recorded as “not soluble”.

In the case of “FKAHCRRSVEGDTMLSLKAVSPTRLLKNKFYQDVFAAEQRGASVEELRELLGRGRAKQGIFEGDLHEGELEIGQAVSQISHAETVAEIMVDLVDGYKRSLAGMPTEI”, the “soluble on expression in E. coli” value is listed as “not soluble”.

The record behind these values is the DeepSol protein solubility set.
